This note sets out measurements from patent US20260209347A1 (BIORAY PHARMACEUTICAL, published 2026).

For experiment [1], the target named is T1, human NKG2A/CD94 on cells (CHOK1-hNKG2A/CD94) (human, UniProt P26715 1-233; Q13241 1-179). As to the kind of experiment: cell-based or functional assay.
In experiment [2] the target is T1, human NKG2A/CD94 on cells …. The experiment is described as follows: FACS on human NKG2A overexpressing cell line. The protocol: (§1) Human NKG2A overexpressing cells (CHOK1-hNKG2A/CD94), cyno NKG2A overexpressing cells (CHOK1-cynoNKG2A/CD94), and human NKG2C overexpressing cells (CHOK1-hNKG2C/CD94) were digested with TrypLE (purchased from Gibco). Cells were collected by centrifugation, then resuspended to 2E6/mL with FACS buffer (PBS+2% FBS). The cells were added to a 96-well cell plate at 100 μL per well, and the supernatant was discarded after centrifugation. The antibody was gradiently diluted with FACS buffer (initial concentration of 200 nM, 5-fold dilution, including point 0, a total of 10 concentration points), added to the cells at 100 μL/well, mixed, and incubated at 4° C. for 1 hour. The incubated cells were centrifuged at 300 g for 5 min and washed twice with FACS buffer. Secondary antibody, anti-human IgG fluorescent secondary antibody 488 (purchased from Thermofisher A-11013), was added, incubated at 4° C. for one hour, then the cells were washed twice with FACS buffer, resuspended in PBS and analyzed by FACS instrument.
The binding activity of humanized antibodies to human NKG2A overexpressing cell line was detected by FACS (refer to Example 4 for FACS). The maximum MFIs of cAb-43 and its humanized mutant antibodies to human NKG2A overexpressing cell line were greater than that of the Z270 control antibody.

Experiment [3] addresses T2, human NKG2C/CD94 on cells (CHOK1-hNKG2C/CD94) (human, UniProt P26717 1-231; Q13241 1-179).
T2 construct: whole, on cells; also called human NKG2C overexpressing cells; human NKG2C overexpressing cell line
As to the kind of experiment: FACS on CHOK1-hNKG2C/CD94 cells. The protocol: as §1

Experiment [4] deals with T1, human NKG2A/CD94 on cells …. As to the kind of experiment: FACS on CHOK1-hNKG2A/CD94 cells. The protocol:
as §1

T2 sequence (P26717 whole entry, chain 1 of 2): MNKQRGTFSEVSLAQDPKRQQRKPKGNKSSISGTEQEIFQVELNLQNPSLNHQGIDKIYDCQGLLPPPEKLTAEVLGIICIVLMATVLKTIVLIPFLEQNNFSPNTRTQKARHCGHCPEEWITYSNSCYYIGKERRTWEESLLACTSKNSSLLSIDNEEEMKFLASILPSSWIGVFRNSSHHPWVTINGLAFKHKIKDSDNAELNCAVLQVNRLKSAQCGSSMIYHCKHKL
T2 sequence (Q13241 whole entry, chain 2 of 2): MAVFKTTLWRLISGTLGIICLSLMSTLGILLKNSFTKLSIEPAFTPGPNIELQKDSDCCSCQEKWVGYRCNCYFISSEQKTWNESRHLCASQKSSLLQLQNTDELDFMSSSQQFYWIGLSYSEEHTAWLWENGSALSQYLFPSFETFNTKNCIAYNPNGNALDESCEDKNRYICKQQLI
T1 sequence (P26715 whole entry, chain 1 of 2): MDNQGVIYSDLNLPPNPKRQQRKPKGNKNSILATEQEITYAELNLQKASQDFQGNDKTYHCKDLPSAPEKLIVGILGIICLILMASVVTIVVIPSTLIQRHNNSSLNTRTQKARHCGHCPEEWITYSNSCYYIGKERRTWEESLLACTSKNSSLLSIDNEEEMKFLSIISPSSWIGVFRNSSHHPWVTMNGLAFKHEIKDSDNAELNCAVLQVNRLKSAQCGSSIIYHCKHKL
T1 sequence (Q13241 whole entry, chain 2 of 2): as the sequence (Q13241 whole entry, chain 2 of 2) above

B1: hu-52VH-13/VL-11 (antibody, human IgG4 S228P, kappa, V domains shown)
VH: QVQLVQSGAEVKKPGASVKVSCKASGFNIQNTYLHWVRQAPGQGLEWMGRIDPANDNIKYVPKFQGRVTMTADTSTNTAYMELSSLRSEDTAVYYCTRHGLFYEGWFAYWGQGTLVTVSS
VL: DIQLTQSPSSLSASVGDRVTITCSVSSSISSSNLHWYQQKPGKAPKPLIYGTSNLASGVPSRFSGSGSGTDYTLTISSLQPEDAATYYCQQWSSYPYTFGQGTKLEIKR
notes: full-length humanized antibody; also called hu-52 humanized antibody
In the case of B1, in experiment [1], the “IC50 (nM), killing of LCL721.221 target cells by NK92 cells” value (from here on “IC50 (nM), killing”) was 0.19 nM. Moreover, the “Maximum MFI” value in experiment [2] came to 18800 MFI.

B2: hu-52VH-13/VL-31 (antibody, human IgG4 S228P, kappa, V domains shown)
VH: QVQLVQSGAEVKKPGASVKVSCKASGFNIQNTYLHWVRQAPGQGLEWMGRIDPANDNIKYVPKFQGRVTMTADTSTNTAYMELSSLRSEDTAVYYCTRHGLFYEGWFAYWGQGTLVTVSS
VL: EIVLTQSPATLSLSPGERATLSCSVSSSISSSNLHWYQQKPGQAPRPLIYGTSNLASGIPARFSGSGSGTDYTLTISSLEPEDAAVYYCQQWSSYPYTFGQGTKLEIKR
notes: as for B1
As for B2, in experiment [1], the “IC50 (nM), killing” value stood at 0.16 nM. Besides, the “Maximum MFI” value in experiment [2] stood at 18800 MFI.

B3: hu-52VH-23/VL-21 (antibody, human IgG4 S228P, kappa, V domains shown)
VH: QVQLVQSGAEVKKPGASVKVSCKASGFNIQNTYLHWVRQAPGQGLEWMGRIDPANDNIKYVPKFQGRVTMTADTSINTAYMELSRLRSDDTAVYYCTRHGLFYEGWFAYWGQGTLVTVSS
VL: DIQLTQSPSTLSASVGDRVTITCSVSSSISSSNLHWYQQKPGKAPKPLIYGTSNLASGVPSRFSGSGSGTEYTLTISSLQPDDAATYYCQQWSSYPYTFGQGTKLEIKR
notes: as for B1
Take B3: the “IC50 (nM), killing” value in experiment [1] worked out at 0.12 nM. Further, in experiment [2], the “Maximum MFI” value stood at 18000 MFI.

B4: hu-52VH-33/VL-21 (antibody, human IgG4 S228P, kappa, V domains shown)
VH: QVQLVQSGAEVKKPGSSVKVSCKASGFNIQNTYLHWVRQAPGQGLEWMGRIDPANDNIKYVPKFQGRVTITADTSTNTAYMELSSLRSEDTAVYYCTRHGLFYEGWFAYWGQGTLVTVSS
VL: DIQLTQSPSTLSASVGDRVTITCSVSSSISSSNLHWYQQKPGKAPKPLIYGTSNLASGVPSRFSGSGSGTEYTLTISSLQPDDAATYYCQQWSSYPYTFGQGTKLEIKR
notes: as for B1
Turning to B4, the “Maximum MFI” value in experiment [2] turned out to be 18000 MFI.

B5: hu-52VH-13/VL-21 (antibody, human IgG4 S228P, kappa, V domains shown)
VH: QVQLVQSGAEVKKPGASVKVSCKASGFNIQNTYLHWVRQAPGQGLEWMGRIDPANDNIKYVPKFQGRVTMTADTSTNTAYMELSSLRSEDTAVYYCTRHGLFYEGWFAYWGQGTLVTVSS
VL: DIQLTQSPSTLSASVGDRVTITCSVSSSISSSNLHWYQQKPGKAPKPLIYGTSNLASGVPSRFSGSGSGTEYTLTISSLQPDDAATYYCQQWSSYPYTFGQGTKLEIKR
notes: as for B1
In the case of B5, the “IC50 (nM), killing” value in experiment [1] worked out at 0.14 nM. For the same molecule, the “Maximum MFI” value in experiment [2] worked out at 18900 MFI.

B6: hu-52VH-33/VL-11 (antibody, human IgG4 S228P, kappa, V domains shown)
VH: QVQLVQSGAEVKKPGSSVKVSCKASGFNIQNTYLHWVRQAPGQGLEWMGRIDPANDNIKYVPKFQGRVTITADTSTNTAYMELSSLRSEDTAVYYCTRHGLFYEGWFAYWGQGTLVTVSS
VL: DIQLTQSPSSLSASVGDRVTITCSVSSSISSSNLHWYQQKPGKAPKPLIYGTSNLASGVPSRFSGSGSGTDYTLTISSLQPEDAATYYCQQWSSYPYTFGQGTKLEIKR
notes: full-length humanized IgG4 antibody (not the L235E/D265A/R409K IgG4 mutant); also called hu-52 humanized antibody
On to B6, for which the “IC50 (nM), killing” value in experiment [1] amounted to 0.09 nM. Besides, the “Maximum MFI” value in experiment [2] turned out to be 18800 MFI.

B7: hu-52VH-23/VL-31 (antibody, human IgG4 S228P, kappa, V domains shown)
VH: QVQLVQSGAEVKKPGASVKVSCKASGFNIQNTYLHWVRQAPGQGLEWMGRIDPANDNIKYVPKFQGRVTMTADTSINTAYMELSRLRSDDTAVYYCTRHGLFYEGWFAYWGQGTLVTVSS
VL: EIVLTQSPATLSLSPGERATLSCSVSSSISSSNLHWYQQKPGQAPRPLIYGTSNLASGIPARFSGSGSGTDYTLTISSLEPEDAAVYYCQQWSSYPYTFGQGTKLEIKR
notes: as for B1
For the molecule B7, the “Maximum MFI” value in experiment [2] was 18100 MFI.

B8: hu-52VH-23/VL-11 (antibody, human IgG4 S228P, kappa, V domains shown)
VH: QVQLVQSGAEVKKPGASVKVSCKASGFNIQNTYLHWVRQAPGQGLEWMGRIDPANDNIKYVPKFQGRVTMTADTSINTAYMELSRLRSDDTAVYYCTRHGLFYEGWFAYWGQGTLVTVSS
VL: DIQLTQSPSSLSASVGDRVTITCSVSSSISSSNLHWYQQKPGKAPKPLIYGTSNLASGVPSRFSGSGSGTDYTLTISSLQPEDAATYYCQQWSSYPYTFGQGTKLEIKR
notes: as for B1
Take B8: the “IC50 (nM), killing” value in experiment [1] is 0.13 nM. Moreover, the “Maximum MFI” value in experiment [2] worked out at 18700 MFI.

B9: cAb-9 (antibody, human IgG4 S228P, kappa, V domains shown)
VH: EVQLQQSVAELVRPGASVKLSCTASGFNIQNTYMHWVKERPEQGLEWIGRIDPANGDTEFAPKFQGKATLTTDTSSNTAYLQLSSLTSEDTAIYYCGRERYFYGSRGFAYWGQGTLVTVSA
VL: DILMTQSPPSMSVSLGDTVSITCHASQGISSNIGWLQQKPGKSFKGLIYHGTNLEDGVPSRFSGSGSGADYSLTISSLESEDFADYYCVQYAQFPWTFGGGTKLEIKR
notes: human-mouse chimeric antibody, human IgG4 constant region; also called antibody number 9; NKG2A chimeric antibody
Regarding B9, the binding result in experiment [3] is listed as “no binding (tested: initial concentration of 200 nM)”; in experiment [4], “binds”.

B10: cAb-17 (antibody, human IgG4 S228P, kappa, V domains shown)
VH: EVQLQQSVAELVRPGASVKLSCTASGFNIKNTYIDWVKQRPEQGLEWIGNIDPANGNTKYAPKFQGKATITADTSSNTAYVQLSSLTSEDTAIYYCARWGGWDVRFAYWGQGTLVTVSA
VL: DIKMTQSPSSMYASLGERVTITCKASQDINTYLSWFQQKPGKSPKTLIYRANRLVDGVPSRFSGSGSGQNYSLTISSLEYEDMGIYYCLQYDEFPLTFGAGTKLELKR
notes: human-mouse chimeric antibody, human IgG4 constant region; also called antibody number 17; NKG2A chimeric antibody
In the case of B10, the binding result is reported as “no binding (tested: initial concentration of 200 nM)” in experiment [3] and “binds” in experiment [4].

B11: cAb-33 (antibody, human IgG4 S228P, kappa, V domains shown)
VH: EVQLQQSVAELVRPGASVKLSCTASGFNIKNTYMDWVKQRPEQGLEWIGRIDPANGNTKYAPKFQGKATITADTSSNTAYLQLSSLTSEDTAIYYCAREGNWDDWFVYWGQGTLVTVSA
VL: DVLMTQTPLSLPVSLGDQASISCRSSQSIVHSNGNTYLEWFLQKPGQSPKLLIYKVSNRFSGVPDRFSGSGSGTDFTLKISRVEAEDLGVYYCFQGSHVPPTFGGGTKLEIKR
notes: human-mouse chimeric antibody, human IgG4 constant region; also called antibody number 33; NKG2A chimeric antibody
Take B11: the binding result in experiment [3] is “no binding (tested: initial concentration of 200 nM)”; in experiment [4] it was “binds”.

B12: cAb-24 (antibody, human IgG4 S228P, kappa, V domains shown)
VH: EVQLQQSVAELVRPGASVKLSCTASGFNIQNTYMHWVKQRPEQGLEWIGRIDPANGNTKYAPKFQGKATITADTSSNTAYLQLSSLTSEDTAIYYCARYYDSRYGYWGQGTTLTVSS
VL: DIKMTQSPSSMYASLGERVTITCKASQDINSYLSWFQQKPGKSPTTLIYRANRLVDGVPSRFSGSGSGQDYSLTISSLEYEDLGIYFCLQYDEFPWTFGGGTKLEIKR
notes: human-mouse chimeric antibody, human IgG4 constant region; also called antibody number 24; NKG2A chimeric antibody
Turning to B12, the binding result in experiment [3] is reported as “no binding (tested: initial concentration of 200 nM)”; in experiment [4], “binds”.

B13: cAb-35 (antibody, human IgG4 S228P, kappa, V domains shown)
VH: EVQLQQSVAELVRPGASVKLSCTASGFNIKNTYMDWVKQRPEQGLEWIGRIDPANGNTKHAPKFQGKATITTDTSSNTAYLQLSSLTSEDTAIYYCARWGGWDVRFAYWGQGTLVTVSA
VL: DIKMTQSPSSMYASLGERVTINCQASQDINSYLSWFQQKPGKSPKTLIHRANRLVDGVPSRFSGSGSGQDYSLTISSLEYEDMGIYYCLQFDEFPLTFGAGTKLELKR
notes: human-mouse chimeric antibody, human IgG4 constant region; also called antibody number 35; NKG2A chimeric antibody
B13: the binding result was “no binding (tested: initial concentration of 200 nM)” in experiment [3] and “binds” in experiment [4].

B14: cAb-14 (antibody, human IgG4 S228P, kappa, V domains shown)
VH: EVQLQQSVAELVRPGASVKLSCTASGFNIKNTYIHWVKQRPEQGLEWIGRIDPANGNTKYAPKFQGKASIIVDTSSNTAYLQLSSLTSEDTAIYYCARYYASSPYYYNMDYWGQGTSVTVSS
VL: DIQMTQSPASLSVSVGETVTITCRASENIYSNLAWYQQKQGKSPQLLVYAATNLADGVPSRFSGSGSGTQYSLKINSLQSEDFGSYYCQHFWGTFTFGSGTKLEIKR
notes: human-mouse chimeric antibody, human IgG4 constant region; also called antibody number 14; NKG2A chimeric antibody
B14: the binding result was “no binding (tested: initial concentration of 200 nM)” in experiment [3] and “binds” in experiment [4].

B15: cAb-52 (antibody, human IgG4 S228P, kappa, V domains shown)
VH: EVQLQQSVAELVRPGASVKLSCTASGFNIQNTYLHWVKQRPEQGLEWIGRIDPANDNIKYVPKFQGKATITADTSSNTAYLQLSSLTSEDTAIYYCTRHGLFYEGWFAYWGQGTLVTVST
VL: EIVLTQSPALMAASPGEKVTITCSVSSSISSSNLHWYQQKSGTSPKPWIYGTSNLASGVPVRFSGSGSGTSYSLTISSMEAEDAATYYCQQWSSYPYTFGSGTKLEIKR
notes: human-mouse chimeric antibody, human IgG4 constant region; also called antibody number 52; NKG2A chimeric antibody
Consider B15, for which the binding result in experiment [3] was “no binding (tested: initial concentration of 200 nM)”. The “IC50 (nM), killing” value in experiment [1] was 0.28 nM. Besides, the “Maximum MFI” value in experiment [2] turned out to be 18800 MFI.
